Laboratory results as given in US20220185896A1 (NEW YORK UNIVERSITY, published 2022).

Legend:
[1] = biological target: T1, human galectin-9 CRD1 domain (human, UniProt O00182 15-148, limits assumed); assay: bead based binding to human galectin-9 CRD1 and CRD2 domains
T1 construct: domain: CRD1; also called CRD1 domain of galectin-9 protein

[2] = biological target: T2, human galectin-9 CRD2 domain (human, UniProt O00182 227-355, limits assumed); assay: ELISA, antibody titrated over immobilized Galectin-9 CRD2
T2 construct: domain: CRD2; also called CRD2 domain of galectin-9

[3] = biological target: T3, human galectin-9 on the cell surface (CRL-2134 cell line; patient tumor-derived cells) (human, UniProt O00182 1-355); assay: cell based saturation curve, surface staining of CRL-2134 cells (fraction of positive cells)
T3 construct: whole, on cells

[4] = biological target: T4, cynomolgus galectin-9 CRD2 domain (cynomolgus monkey, UniProt A0A7N9IHL9 227-355); assay: bead based binding
T4 construct: domain: CRD2; also called cynomolgus CRD2 domain; CRD2 domain of cynomolgus monkey galectin-9

[5] = biological target: T2, human galectin-9 CRD2 domain; assay: bead based binding
[6] = biological target: T5, mouse galectin-9 CRD2 domain (mouse, UniProt O08573 225-353, limits assumed); assay: bead based binding
T5 construct: domain: CRD2; also called mouse CRD2 domain

[7] = biological target: T6, rat galectin-9 CRD2 domain (rat, UniProt P97840 226-354, limits assumed); assay: bead based binding
T6 construct: domain: CRD2; also called rat CRD2 domain

[8] = biological target: T5, mouse galectin-9 CRD2 domain; assay: SPR, One Step method on a Pioneer SPR

T5 sequence (O08573 225-353 limits assumed): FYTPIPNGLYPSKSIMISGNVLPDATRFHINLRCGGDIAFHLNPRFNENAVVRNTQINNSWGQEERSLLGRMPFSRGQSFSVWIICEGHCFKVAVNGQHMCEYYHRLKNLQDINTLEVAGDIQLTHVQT
T2 sequence (O00182 227-355 limits assumed): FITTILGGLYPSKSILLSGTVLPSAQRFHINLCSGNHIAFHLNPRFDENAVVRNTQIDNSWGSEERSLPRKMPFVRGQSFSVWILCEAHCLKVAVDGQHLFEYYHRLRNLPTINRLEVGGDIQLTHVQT
T3 sequence (O00182 whole entry): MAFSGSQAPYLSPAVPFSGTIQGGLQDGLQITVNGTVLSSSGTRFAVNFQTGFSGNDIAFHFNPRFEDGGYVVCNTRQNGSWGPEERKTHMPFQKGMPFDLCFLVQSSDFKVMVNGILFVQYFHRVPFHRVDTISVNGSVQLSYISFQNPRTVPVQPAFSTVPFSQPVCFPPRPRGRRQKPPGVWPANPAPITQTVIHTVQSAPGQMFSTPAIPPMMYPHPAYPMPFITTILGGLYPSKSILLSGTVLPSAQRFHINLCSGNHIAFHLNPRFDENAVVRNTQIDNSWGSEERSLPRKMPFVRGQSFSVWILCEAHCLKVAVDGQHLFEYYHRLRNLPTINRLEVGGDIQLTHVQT
T1 sequence (O00182 15-148 limits assumed): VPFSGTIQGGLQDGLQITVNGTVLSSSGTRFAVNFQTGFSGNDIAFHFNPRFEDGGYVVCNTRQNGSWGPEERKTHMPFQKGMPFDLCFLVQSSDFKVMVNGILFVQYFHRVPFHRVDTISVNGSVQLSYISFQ
T6 sequence (P97840 226-354 limits assumed): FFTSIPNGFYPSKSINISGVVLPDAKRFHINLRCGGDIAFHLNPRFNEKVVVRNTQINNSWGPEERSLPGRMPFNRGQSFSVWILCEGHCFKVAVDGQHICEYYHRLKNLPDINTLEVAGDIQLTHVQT

binding result [1] | Kd [2] [nM] | Kd [3] [nM] | Kd [4] [nM] | Kd [5] [nM] | Kd [6] [nM] | Kd [7] [nM] | Kd [8] [nM] | Binder
no binding | 0.45 | 2.9 | 0.3 | 0.18 | 0.3 | 0.35 | 3.05 | G9.2-17 mIgG1 (mouse IgG1 version of G9.2-17) (antibody, V domains shown, Mouse IgG1 backbone; also called mIgG1 G9.2-17; G9.2-17 IgG1 mouse mAb) VH: EVQLVESGGGLVQPGGSLRLSCAASGFTVSSSSIHWVRQAPGKGLEWVAYISSSSGYTYYADSVKGRFTISADTSKNTAYLQMNSLRAEDTAVYYCARYWSYPSWWPYRGMDYWGQGTLVTVSS VL: DIQMTQSPSSLSASVGDRVTITCRASQSVSSAVAWYQQKPGKAPKLLIYSASSLYSGVPSRFSGSRSGTDFTLTISSLQPEDFATYYCQQSSTDPITFGQGTKVEIKR
no binding | 0.42 | 0.41 | – | 0.15 | 0.3 | – | 1.8 | anti-Galectin-9 antibody G9.2-17 (IgG4) (antibody, V domains shown, also called G9.2-17 (Ig4); G9.2-17 hIgG4 Fab Arm Exchange mut) VH: EVQLVESGGGLVQPGGSLRLSCAASGFTVSSSSIHWVRQAPGKGLEWVAYISSSSGYTYYADSVKGRFTISADTSKNTAYLQMNSLRAEDTAVYYCARYWSYPSWWPYRGMDYWGQGTLVTVSS VL: DIQMTQSPSSLSASVGDRVTITCRASQSVSSAVAWYQQKPGKAPKLLIYSASSLYSGVPSRFSGSRSGTDFTLTISSLQPEDFATYYCQQSSTDPITFGQGTKVEIKR
